From patent US20090105152A1
Numbered stars: 1 amine (or outer) side, 2 acyl side, 3 side chain; on linkers, the order of the positions; unused ones are H or OH. Square brackets hold non-standard residues; d marks the D form. Primed or numbered codes have the meaning given here. Azetidine3carboxylic = O=C(C1CN([*:1])C1)[*:2]; Phe(βS-OH) = N[C@H](C(=O)O)[C@@H](O)c1ccccc1; Pro(trans-4-F) = O=C(O)[C@@H]1C[C@@H](F)CN1; Pic(3) = 3-piperidinecarboxylic acid; Arg(Me) = CNC(=N)NCCC[C@H](N)C(=O)O; Dap(CONH2) = NC(=O)NC[C@H](N)C(=O)O; cisHyp = O=C(O)[C@@H]1C[C@H](O)CN1; Hyp = O=C(O)[C@@H]1C[C@@H](O)CN1; d4Pal = N[C@H](Cc1ccncc1)C(=O)O; Pip = O=C(O)[C@@H]1CCCCN1; NMeA = CN[C@@H](C)C(=O)O; Thz = O=C(O)[C@@H]1CSCN1; dNMeA = CN[C@H](C)C(=O)O; Aze = O=C(O)[C@@H]1CCN1; Nva = CCC[C@H](N)C(=O)O; 2Abz = Nc1ccccc1C(=O)O; Aib = CC(C)(N)C(=O)O; azaGly = NNC(=O)O; Sar = CNCC(=O)O

Molecular target: human OT7T175 (metastin receptor) (human) (UniProt Q969F8)
Experiment: cell-based or functional assay

human OT7T175 (metastin receptor) (human), sequence (Q969F8 whole entry L364H): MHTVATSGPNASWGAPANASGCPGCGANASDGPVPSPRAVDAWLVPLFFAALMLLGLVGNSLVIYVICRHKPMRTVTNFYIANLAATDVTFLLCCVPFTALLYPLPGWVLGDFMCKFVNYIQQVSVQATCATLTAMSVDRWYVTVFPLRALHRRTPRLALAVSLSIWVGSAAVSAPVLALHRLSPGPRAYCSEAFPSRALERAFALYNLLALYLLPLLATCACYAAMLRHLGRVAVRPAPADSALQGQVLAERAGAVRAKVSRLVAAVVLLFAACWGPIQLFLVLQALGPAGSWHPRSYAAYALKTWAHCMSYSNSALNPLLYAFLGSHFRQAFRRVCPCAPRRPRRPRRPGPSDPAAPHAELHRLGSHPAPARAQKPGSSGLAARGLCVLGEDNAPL

Binder	intracellular Ca ion level-increasing activity [specific activity to Metastin (1-54)] (relative to Metastin (1-54))
Ac-[dY][Pip]NTF[azaGly]L[Arg(Me)]W-NH2 (SMILES CNC(=N)NCCC[C@H](NC(=O)[C@H](CC(C)C)NC(=O)NNC(=O)[C@H](Cc1ccccc1)NC(=O)[C@@H](NC(=O)[C@H](CC(N)=O)NC(=O)[C@@H]1CCCCN1C(=O)[C@@H](Cc1ccc(O)cc1)NC(C)=O)[C@@H](C)O)C(=O)N[C@@H](Cc1c[nH]c2ccccc12)C(N)=O) [des(1)-Ac-[D-Tyr2,Pic(2)3,Thr5,AzaGly7,Arg(Me)9,Trp10]MS10]	1.1
Ac-[dY][dW][Dap(CONH2)]TF[azaGly]L[Arg(Me)]W-NH2 (SMILES CNC(=N)NCCC[C@H](NC(=O)[C@H](CC(C)C)NC(=O)NNC(=O)[C@H](Cc1ccccc1)NC(=O)[C@@H](NC(=O)[C@H](CNC(N)=O)NC(=O)[C@@H](Cc1c[nH]c2ccccc12)NC(=O)[C@@H](Cc1ccc(O)cc1)NC(C)=O)[C@@H](C)O)C(=O)N[C@@H](Cc1c[nH]c2ccccc12)C(N)=O) [des(1)-Ac-[D-Tyr2,D-Trp3,Alb4,Thr5,AzaGly7,Arg(Me)9,Trp10]MS10]	1
Ac-[dY][Aib]NTF[azaGly]L[Arg(Me)]W-NH2 (SMILES CNC(=N)NCCC[C@H](NC(=O)[C@H](CC(C)C)NC(=O)NNC(=O)[C@H](Cc1ccccc1)NC(=O)[C@@H](NC(=O)[C@H](CC(N)=O)NC(=O)C(C)(C)NC(=O)[C@@H](Cc1ccc(O)cc1)NC(C)=O)[C@@H](C)O)C(=O)N[C@@H](Cc1c[nH]c2ccccc12)C(N)=O) [des(1)-Ac-[D-Tyr2,Aib3,Thr5,AzaGly7,Arg(Me)9,Trp10]MS10]	1.5
Ac-[dY][Hyp]NT[Phe(βS-OH)][azaGly]L[Arg(Me)]W-NH2 (SMILES CNC(=N)NCCC[C@H](NC(=O)[C@H](CC(C)C)NC(=O)NNC(=O)[C@@H](NC(=O)[C@@H](NC(=O)[C@H](CC(N)=O)NC(=O)[C@@H]1C[C@@H](O)CN1C(=O)[C@@H](Cc1ccc(O)cc1)NC(C)=O)[C@@H](C)O)[C@@H](O)c1ccccc1)C(=O)N[C@@H](Cc1c[nH]c2ccccc12)C(N)=O) [des(1)-Ac-[D-Tyr2,Hyp3,Thr5,erythro-Ser(3Phenyl)6,AzaGly7,Arg(Me)9,Trp10]MS10]	0.8
Ac-[dY][Azetidine3carboxylic]NTF[azaGly]L[Arg(Me)]W-NH2 (SMILES CNC(=N)NCCC[C@H](NC(=O)[C@H](CC(C)C)NC(=O)NNC(=O)[C@H](Cc1ccccc1)NC(=O)[C@@H](NC(=O)[C@H](CC(N)=O)NC(=O)C1CN(C(=O)[C@@H](Cc2ccc(O)cc2)NC(C)=O)C1)[C@@H](C)O)C(=O)N[C@@H](Cc1c[nH]c2ccccc12)C(N)=O) [des(1)-Ac-[D-Tyr2,Aze(3)3,Thr5,AzaGly7,Arg(Me)9,Trp10]MS10]	4.1
Ac-[dY][cisHyp]NTF[azaGly]L[Arg(Me)]W-NH2 [des(1)-Ac-[D-Tyr2,cisHyp3,Thr5,AzaGly7,Arg(Me)9,Trp10]MS10]	0.6
Ac-[dY][d4Pal][Dap(CONH2)]TF[azaGly]L[Arg(Me)]W-NH2 (SMILES CNC(=N)NCCC[C@H](NC(=O)[C@H](CC(C)C)NC(=O)NNC(=O)[C@H](Cc1ccccc1)NC(=O)[C@@H](NC(=O)[C@H](CNC(N)=O)NC(=O)[C@@H](Cc1ccncc1)NC(=O)[C@@H](Cc1ccc(O)cc1)NC(C)=O)[C@@H](C)O)C(=O)N[C@@H](Cc1c[nH]c2ccccc12)C(N)=O) [des(1)-Ac-[D-Tyr2,D-Pya(4)3,Alb4,Thr5,AzaGly7,Arg(Me)9,Trp10]MS10]	2.6
{3‑(p-hydroxyphenyl)propionyl}-[Hyp]NTF[azaGly]L[Arg(Me)]W-NH2 [des(1-2)-3-(p-Hydroxyphenyl)propionyl-[Hyp3,Thr5,AzaGly7,Arg(Me)9,Trp10]MS10]	1.1
Ac-[dY]GNTF[azaGly]L[Arg(Me)]W-NH2 (SMILES CNC(=N)NCCC[C@H](NC(=O)[C@H](CC(C)C)NC(=O)NNC(=O)[C@H](Cc1ccccc1)NC(=O)[C@@H](NC(=O)[C@H](CC(N)=O)NC(=O)CNC(=O)[C@@H](Cc1ccc(O)cc1)NC(C)=O)[C@@H](C)O)C(=O)N[C@@H](Cc1c[nH]c2ccccc12)C(N)=O) [des(1)-Ac-[D-Tyr2,Gly3,Thr5,AzaGly7,Arg(Me)9,Trp10]MS10]	3.1
Ac-[dY][dNMeA]NTF[azaGly]L[Arg(Me)]W-NH2 (SMILES CNC(=N)NCCC[C@H](NC(=O)[C@H](CC(C)C)NC(=O)NNC(=O)[C@H](Cc1ccccc1)NC(=O)[C@@H](NC(=O)[C@H](CC(N)=O)NC(=O)[C@@H](C)N(C)C(=O)[C@@H](Cc1ccc(O)cc1)NC(C)=O)[C@@H](C)O)C(=O)N[C@@H](Cc1c[nH]c2ccccc12)C(N)=O) [des(1)-Ac-[D-Tyr2,D-NMeAla3,Thr5,AzaGly7,Arg(Me)9,Trp10]MS10]	3.2
Ac-[dY][Hyp]NTF[azaGly]L[Arg(Me)]W-NH2 [des(1)-Ac-[D-Tyr2,Hyp3,Thr5,AzaGly7,Arg(Me)9,Trp10]MS10]	2
Ac-[dY][dW]NTF[azaGly]L[dR]W-NH2 (SMILES CC(=O)N[C@H](Cc1ccc(O)cc1)C(=O)N[C@H](Cc1c[nH]c2ccccc12)C(=O)N[C@@H](CC(N)=O)C(=O)N[C@H](C(=O)N[C@@H](Cc1ccccc1)C(=O)NNC(=O)N[C@@H](CC(C)C)C(=O)N[C@H](CCCNC(=N)N)C(=O)N[C@@H](Cc1c[nH]c2ccccc12)C(N)=O)[C@@H](C)O) [des(1)-Ac-[D-Tyr2,D-Trp3,Thr5,AzaGly7,D-Arg9,Trp10]MS10]	12.8
Ac-[dY][2Abz]NTF[azaGly]L[Arg(Me)]W-NH2 (SMILES CNC(=N)NCCC[C@H](NC(=O)[C@H](CC(C)C)NC(=O)NNC(=O)[C@H](Cc1ccccc1)NC(=O)[C@@H](NC(=O)[C@H](CC(N)=O)NC(=O)c1ccccc1NC(=O)[C@@H](Cc1ccc(O)cc1)NC(C)=O)[C@@H](C)O)C(=O)N[C@@H](Cc1c[nH]c2ccccc12)C(N)=O) [des(1)-Ac-[D-Tyr2,Abz(2)3,Thr5,AzaGly7,Arg(Me)9,Trp10]MS10]	3.2
Ac-Y[Hyp]NTF[azaGly]L[Arg(Me)]W-NH2 [des(1)-Ac-[Tyr2,Hyp3,Thr5,AzaGly7,Arg(Me)9,Trp10]MS10]	1.1
Ac-[dY][Sar]NTF[azaGly]L[Arg(Me)]W-NH2 (SMILES CNC(=N)NCCC[C@H](NC(=O)[C@H](CC(C)C)NC(=O)NNC(=O)[C@H](Cc1ccccc1)NC(=O)[C@@H](NC(=O)[C@H](CC(N)=O)NC(=O)CN(C)C(=O)[C@@H](Cc1ccc(O)cc1)NC(C)=O)[C@@H](C)O)C(=O)N[C@@H](Cc1c[nH]c2ccccc12)C(N)=O) [des(1)-Ac-[D-Tyr2,Sar3,Thr5,AzaGly7,Arg(Me)9,Trp10]MS10]	8.8
Ac-[dY][Thz]NTF[azaGly]L[Arg(Me)]W-NH2 (SMILES CNC(=N)NCCC[C@H](NC(=O)[C@H](CC(C)C)NC(=O)NNC(=O)[C@H](Cc1ccccc1)NC(=O)[C@@H](NC(=O)[C@H](CC(N)=O)NC(=O)[C@@H]1CSCN1C(=O)[C@@H](Cc1ccc(O)cc1)NC(C)=O)[C@@H](C)O)C(=O)N[C@@H](Cc1c[nH]c2ccccc12)C(N)=O) [des(1)-Ac-[D-Tyr2,Thz3,Thr5,AzaGly7,Arg(Me)9,Trp10]MS10]	1.4
Ac-[dY][Pic(3)]NTF[azaGly]L[Arg(Me)]W-NH2 [des(1)-Ac-[D-Tyr2,Pic(3)3,Thr5,AzaGly7,Arg(Me)9,Trp10]MS10]	2.2
Ac-[dY][NMeA]NTF[azaGly]L[Arg(Me)]W-NH2 (SMILES CNC(=N)NCCC[C@H](NC(=O)[C@H](CC(C)C)NC(=O)NNC(=O)[C@H](Cc1ccccc1)NC(=O)[C@@H](NC(=O)[C@H](CC(N)=O)NC(=O)[C@H](C)N(C)C(=O)[C@@H](Cc1ccc(O)cc1)NC(C)=O)[C@@H](C)O)C(=O)N[C@@H](Cc1c[nH]c2ccccc12)C(N)=O) [des(1)-Ac-[D-Tyr2,NMeAla3,Thr5,AzaGly7,Arg(Me)9,Trp10]MS10]	2.7
Ac-[dY][dW]N[dP]F[azaGly]L[Arg(Me)]W-NH2 (SMILES CNC(=N)NCCC[C@H](NC(=O)[C@H](CC(C)C)NC(=O)NNC(=O)[C@H](Cc1ccccc1)NC(=O)[C@H]1CCCN1C(=O)[C@H](CC(N)=O)NC(=O)[C@@H](Cc1c[nH]c2ccccc12)NC(=O)[C@@H](Cc1ccc(O)cc1)NC(C)=O)C(=O)N[C@@H](Cc1c[nH]c2ccccc12)C(N)=O) [des(1)-Ac-[D-Tyr2,D-Trp3,D-Pro5,AzaGly7,Arg(Me)9,Trp10]MS10]	3.8
Ac-[dY][Hyp][Nva]TF[azaGly]L[Arg(Me)]W-NH2 (SMILES CCC[C@H](NC(=O)[C@@H]1C[C@@H](O)CN1C(=O)[C@@H](Cc1ccc(O)cc1)NC(C)=O)C(=O)N[C@H](C(=O)N[C@@H](Cc1ccccc1)C(=O)NNC(=O)N[C@@H](CC(C)C)C(=O)N[C@@H](CCCNC(=N)NC)C(=O)N[C@@H](Cc1c[nH]c2ccccc12)C(N)=O)[C@@H](C)O) [des(1)-Ac-[D-Tyr2,Hyp3,Nva4,Thr5,AzaGly7,Arg(Me)9,Trp10]MS10]	1.2
Ac-[dY][Aze]NTF[azaGly]L[Arg(Me)]W-NH2 (SMILES CNC(=N)NCCC[C@H](NC(=O)[C@H](CC(C)C)NC(=O)NNC(=O)[C@H](Cc1ccccc1)NC(=O)[C@@H](NC(=O)[C@H](CC(N)=O)NC(=O)[C@@H]1CCN1C(=O)[C@@H](Cc1ccc(O)cc1)NC(C)=O)[C@@H](C)O)C(=O)N[C@@H](Cc1c[nH]c2ccccc12)C(N)=O) [des(1)-Ac-[D-Tyr2,Aze(2)3,Thr5,AzaGly7,Arg(Me)9,Trp10]MS10]	0.8
Ac-[dY][Pro(trans-4-F)]NTF[azaGly]L[Arg(Me)]W-NH2 (SMILES CNC(=N)NCCC[C@H](NC(=O)[C@H](CC(C)C)NC(=O)NNC(=O)[C@H](Cc1ccccc1)NC(=O)[C@@H](NC(=O)[C@H](CC(N)=O)NC(=O)[C@@H]1C[C@@H](F)CN1C(=O)[C@@H](Cc1ccc(O)cc1)NC(C)=O)[C@@H](C)O)C(=O)N[C@@H](Cc1c[nH]c2ccccc12)C(N)=O) [des(1)-Ac-[D-Tyr2,Pro(4F)3,Thr5,AzaGly7,Arg(Me)9,Trp10]MS10]	0.7
